The source of these data is paper PMC10522485.

The first experiment addresses CLIP102-120 labeled with FITC (human). As to the kind of experiment: fluorescence polarisation; equilibrium; empty DR from bacterial expression varied from 4 µM to 7.8125 nM (2-fold dilutions), CLIP-FITC fixed at 100 nM. On the technique in general: Fluorescence polarisation rises when a labelled molecule tumbles more slowly, as on binding a larger partner.
Consider “empty HLA-DR DRA*01:01(N62A)/DRB1*01:02 from bacterial expression (complex)”, for which the Kd is 512 nM.

For the substance “empty HLA-DR DRA*01:01(N62A)/DRB1*01:01 from bacterial expression (complex)”, the Kd stood at 1110 nM.

The substance “empty HLA-DR DRA*01:01/DRB1*01:01(R71A) from bacterial expression (complex)” yielded a Kd of 1360 nM.

Consider “empty HLA-DR DRA*01:01/DRB1*01:02 from bacterial expression (complex)”, for which the Kd was 325 nM. Against the preceding substance, the Kd is about 4.2-fold lower.

For “empty HLA-DR DRA*01:01/DRB1*01:01 from bacterial expression (complex)”, the Kd was determined as 414 nM.

Take “empty HLA-DR DRA*01:01/DRB1*01:02(R71A) from bacterial expression (complex)”: the Kd amounted to 508 nM.

The target is the same in a further experiment. As to the kind of experiment: fluorescence polarisation; dissociation of 100 nM DR/CLIP-FITC complexes with 20 µM unlabeled CLIP102-120 as competitor, no DM (intrinsic off-rate), 37 °C, phosphate/citrate buffer pH 5.2.
The substance “HLA-DR DRA*01:01/DRB1*08:01, insect cell-expressed (complex)” returned a koff of 6.88e-05 s⁻¹.

“HLA-DR DRA*01:01/DRB1*13:01, insect cell-expressed (complex)” returned a koff of 7.9e-05 s⁻¹.

For the substance “HLA-DR DRA*01:01/DRB1*14:01, insect cell-expressed (complex)”, the koff is 6.27e-05 s⁻¹. The koff values of the last two substances are within 1.5-fold of each other.

“HLA-DR DRA*01:01/DRB1*04:01, insect cell-expressed (complex)” registered a koff of 4.23e-05 s⁻¹.

The substance “HLA-DR DRA*01:01/DRB1*01:01, insect cell-expressed (complex)” had a koff of 1.06e-05 s⁻¹.

On to “HLA-DR DRA*01:01/DRB1*08:02, insect cell-expressed (complex)”, for which the koff worked out at 1.01e-05 s⁻¹.

Regarding “HLA-DR DRA*01:01/DRB1*04:04, insect cell-expressed (complex)”, the koff was found to be 3.22e-05 s⁻¹.

In turn, “HLA-DR DRA*01:01/DRB1*01:02, insect cell-expressed (complex)” returned a koff of 2.45e-05 s⁻¹.

“HLA-DR DRA*01:01/DRB1*07:01, insect cell-expressed (complex)” came in with a koff of 3.25e-05 s⁻¹.

As for “HLA-DR DRA*01:01/DRB1*15:01, insect cell-expressed (complex)”, the koff was found to be 0.000223 s⁻¹.

In turn, “HLA-DR DRA*01:01/DRB1*03:01, insect cell-expressed (complex)” displayed a koff of 0.000317 s⁻¹. This koff and that of the substance before are within 1.5-fold of each other.

Turning to “HLA-DR DRA*01:01/DRB1*13:02, insect cell-expressed (complex)”, the off-rate constant (koff) amounted to 0.000148 s⁻¹.

A word on the Kd: it is the equilibrium constant for the complex coming apart. By koff is commonly meant the rate constant with which the complex falls apart. A high value points to a short-lived complex.
